Test results taken from patent US20030157645.
Changes are numbered by the printed parent chain. Numbers in names are those of the source.

B1: Subtilisin E (wild type) (protein)
chain: AQSVPYGISQIKAPALHSQGYTGSNVKVAVIDSGIDSSHPDLNVRGGASFVPSETNPYQDGSSHGTHVAGTIAALNNSIGVLGVSPSASLYAVKVLDSTGSGQYSWIINGIEWAISNNMDVINMSLGGPTGSTALKTVVDKAVSSGIVVAAAAGNEGSSGSTSTVGYPAKYPSTIAVGAVNSSNQRASFSSAGSELDVMAPGVSIQSTLPGGTYGAYNGTSMATPHVAGAAALILSKHPTWTNAQVRDRLESTATYLGNSFYYGKGLINVQAAAQ
B2: Variant 1 (Y6N/I31L/S38T/F50I/Q103R) (protein)
chain: B1 chain with Y6N, I31L, S38T, F50I, Q103R
B3: Variant 4 (Q103R/V138A/A150V/E156A/Y217H/Q271H) (protein)
chain: B1 chain with Q103R, V138A, A150V, E156A, Y217H, Q271H
B4: Variant 22 (E54D/Q103R/T133K/E156A/Y217H) (protein)
chain: B1 chain with E54D, Q103R, T133K, E156A, Y217H

Molecular target: fluorescent labeled casein or bovine serum albumin molecules

Row | Protein | Km [µM]
1 | B1 | 194
2 | B2 | 117
3 | B3 | 71
4 | B4 | 26
